Data reported in US20050037969A1 (ARBOR VITA, published 2005).
Ends that are not written are not given here. * marks the point of attachment. Biotin = O=C1N[C@H]2[C@H](CS[C@H]2CCCCC(=O)*)N1

Experiments:
Assay in all cases: A/G assays
[1] = biological target: T1, GST-mouse syntenin fusion protein (Mus musculus, UniProt O08992 108-286)
T1 construct: also called Mus musculus Syntenin; not shown: glutathione S-transferase encoded by vector pGEX-3X (Pharmacia)
T1 chain: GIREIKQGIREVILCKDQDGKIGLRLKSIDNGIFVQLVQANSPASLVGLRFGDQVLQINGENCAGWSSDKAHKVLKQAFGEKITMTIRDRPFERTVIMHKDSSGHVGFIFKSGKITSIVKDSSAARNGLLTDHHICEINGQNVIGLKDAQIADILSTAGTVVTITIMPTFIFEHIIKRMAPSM

[2] = biological target: T2, TAX-IP2L PDZ-GST fusion protein (Homo sapiens (Human), UniProt Q8TF64 107-197)
T2 construct: Order of GST and PDZ part and limits not seen in the excerpts
T2 sequence: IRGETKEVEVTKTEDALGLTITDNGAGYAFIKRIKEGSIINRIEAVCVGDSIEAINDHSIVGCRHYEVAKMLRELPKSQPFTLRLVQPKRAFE

[3] = biological target: T3, GST-PDZK1 fusion protein (PDZ domains 2-4) (Homo sapiens, UniProt Q5T2W1 134-457)
T3 construct: not shown: glutathione S-transferase encoded by vector pGEX-3X (Pharmacia)
T3 sequence: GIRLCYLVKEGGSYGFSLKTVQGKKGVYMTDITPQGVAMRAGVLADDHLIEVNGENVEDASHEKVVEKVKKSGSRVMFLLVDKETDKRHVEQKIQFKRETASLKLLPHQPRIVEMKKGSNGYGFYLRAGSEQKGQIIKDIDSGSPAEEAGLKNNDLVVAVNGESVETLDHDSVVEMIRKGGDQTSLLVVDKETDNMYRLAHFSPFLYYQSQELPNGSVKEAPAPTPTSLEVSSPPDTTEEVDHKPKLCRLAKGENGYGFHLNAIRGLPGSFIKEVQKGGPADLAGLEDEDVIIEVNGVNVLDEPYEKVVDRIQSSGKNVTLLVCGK

[4] = biological target: T4, GST-CASK PDZ domain fusion protein (Homo sapiens, UniProt O14936 486-575)
T4 construct: also called Homo sapiens CASK protein
T4 sequence: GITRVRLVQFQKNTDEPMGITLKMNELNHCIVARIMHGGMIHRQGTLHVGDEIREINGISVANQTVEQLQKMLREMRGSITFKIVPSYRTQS

[5] = biological target: T5, KIAA0807 (PDZ domain)-GST fusion protein (human, UniProt Q6P0Q8 1104-1192)
T5 construct: also called K807; KIAA807; not shown: glutathione S-transferase encoded by vector pGEX-3X (Pharmacia)
T5 sequence: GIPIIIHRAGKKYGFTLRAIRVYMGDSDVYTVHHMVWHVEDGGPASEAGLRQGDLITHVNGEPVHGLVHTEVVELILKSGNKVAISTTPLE

[6] = biological target: T6, GST-TAX-IP40 PDZ domain fusion protein (human, UniProt Q6B4M5 150-252 (rat entry))
T6 construct: also called TAX40; not shown: glutathione S-transferase encoded by vector pGEX-3X (Pharmacia)
T6 sequence: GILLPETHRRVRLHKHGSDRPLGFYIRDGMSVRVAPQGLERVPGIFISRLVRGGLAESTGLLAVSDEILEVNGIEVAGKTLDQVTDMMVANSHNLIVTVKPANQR

[7] = biological target: T7, GST-TAX-IP2 PDZ domain fusion protein (human, UniProt O14908 129-216)
T7 construct: also called TAX-1P2; TAX2; not shown: glutathione S-transferase encoded by vector pGEX-3X (Pharmacia)
T7 chain: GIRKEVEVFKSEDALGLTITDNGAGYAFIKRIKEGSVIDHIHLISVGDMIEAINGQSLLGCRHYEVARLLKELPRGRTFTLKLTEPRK

[8] = biological target: T8, GST-MPP1 PDZ domain fusion protein (Homo sapiens (Human), UniProt Q00013 67-152)
T8 construct: also called p55; 55 Kd erythrocyte membrane protein; not shown: glutathione S-transferase encoded by vector pGEX-3X (Pharmacia)
T8 sequence: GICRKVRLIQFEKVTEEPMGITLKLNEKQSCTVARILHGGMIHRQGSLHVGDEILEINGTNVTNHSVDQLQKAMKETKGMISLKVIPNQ

[9] = biological target: T9, GST-TAX-IP43 PDZ domain fusion protein (human, UniProt Q13884 109-180)
T9 construct: also called TAX43; not shown: glutathione S-transferase encoded by vector pGEX-3X (Pharmacia)
T9 sequence: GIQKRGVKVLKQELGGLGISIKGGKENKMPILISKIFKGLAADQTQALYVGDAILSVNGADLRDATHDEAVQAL

[10] = biological target: T10, GST-PTN-4 PDZ domain fusion protein (Homo sapiens (Human), UniProt P29074 517-605)
T10 construct: also called protein-tyrosine phosphatase meg1; not shown: glutathione S-transferase encoded by vector pGEX-3X (Pharmacia)
T10 sequence: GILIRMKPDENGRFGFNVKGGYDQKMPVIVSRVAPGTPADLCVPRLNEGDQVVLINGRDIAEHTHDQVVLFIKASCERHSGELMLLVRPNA

[11] = biological target: T11, NOS1 PDZ-GST fusion protein (Homo sapiens (Human), UniProt P29475 11-100)
T11 construct: Order of GST and PDZ part and limits not seen in the excerpts
T11 sequence (P29475 11-100 limits assumed): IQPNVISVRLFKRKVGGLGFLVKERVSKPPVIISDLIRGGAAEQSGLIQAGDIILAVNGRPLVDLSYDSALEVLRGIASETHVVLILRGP

[12] = biological target: T12, K559 PDZ-GST fusion protein (Homo sapiens (Human), UniProt Q9Y6V0 4489-4593)
T12 construct: Order of GST and PDZ part and limits not seen in the excerpts
T12 sequence: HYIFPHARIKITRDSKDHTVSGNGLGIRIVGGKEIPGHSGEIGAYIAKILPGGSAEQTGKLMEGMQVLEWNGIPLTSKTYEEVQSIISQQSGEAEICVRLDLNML

[13] = biological target: T13, ConEn PDZ-GST fusion protein (Homo sapiens (Human), UniProt Q969H4 193-287)
T13 construct: The label ConEn is not explained in the excerpts
T13 sequence: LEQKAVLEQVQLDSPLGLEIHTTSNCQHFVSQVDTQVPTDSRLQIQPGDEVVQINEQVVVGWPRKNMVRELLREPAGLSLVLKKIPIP

[14] = biological target: T14, X11β PDZ-GST fusion protein (Rattus norvegicus (Rat), UniProt O35431 560-745)
T14 construct: Order of GST and PDZ part and limits not seen in the excerpts
T14 chain: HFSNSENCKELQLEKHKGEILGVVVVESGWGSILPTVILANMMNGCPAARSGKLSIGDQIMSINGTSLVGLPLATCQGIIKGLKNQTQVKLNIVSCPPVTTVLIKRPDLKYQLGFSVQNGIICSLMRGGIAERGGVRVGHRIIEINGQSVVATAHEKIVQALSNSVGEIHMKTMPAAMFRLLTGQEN

Measured: binding result

B1: CD6 C-terminal peptide AA6L, biotinylated (peptide)
peptide: Biotin-SPQPDSTDNDDYDDISAA
no binding: [1] | [2] | [3] | [4] | [5] | [6] | [7] | [8] | [9] | [10] | [11] | [12] | [13] | [14]

B2: CD5 C-terminal peptide AA49L (peptide)
peptide: Biotin-SMQPDNSSDSDYDLHGAQRL
notes: Only the last four residues are seen in the excerpts
no binding: [1] | [2] | [3] | [4] | [5] | [6] | [7] | [8] | [9] | [10] | [11] | [12] | [13] | [14]

B3: CD105 C-terminal peptide AA16L, biotinylated (peptide)
peptide: Biotin-STNHSIGSTQSTPCSTSSMA
notes: also called CD105 (endoglin)
no binding: [1] | [2] | [3] | [4] | [5] | [6] | [7] | [8] | [9] | [10] | [11] | [12] | [13] | [14]

B4: FasL C-terminal peptide AA23L-M, biotinylated (peptide)
peptide: Biotin-SSKSKSSEESQTFFGLYKL
modifications: not fully specified
notes: also called FasLigand; Fas ligand
no binding: [1] | [2] | [3] | [4] | [5] | [6] | [7] | [8] | [9] | [10] | [11] | [12] | [13] | [14]

B5: CD49F C-terminal peptide AA12L, biotinylated (peptide)
peptide: Biotin-HKAEIHAQPSDKERLTSDA
notes: also called CD49F (Aform, alpha6)
no binding: [1] | [2] | [3] | [4] | [5] | [6] | [7] | [8] | [9] | [10] | [11] | [12] | [13] | [14]

B6: CD62E C-terminal peptide AA48L (peptide)
peptide: Biotin-SSSQSLESDGSYQKPSYIL
notes: as for B2
no binding: [1] | [2] | [3] | [4] | [5] | [6] | [7] | [8] | [9] | [10] | [11] | [12] | [13] | [14]

B7: CD97 C-terminal peptide AA14L, biotinylated (peptide)
peptide: Biotin-TSGTGHNQTRALRASESGI
notes: also called CD97 (CD55L)
no binding: [1] | [2] | [3] | [4] | [5] | [6] | [7] | [8] | [9] | [10] | [11] | [12] | [13] | [14]

B8: Clasp-2 C-terminal peptide AA2L, biotinylated (peptide)
peptide: Biotin-ISGTPTSTMVHGMTSSSSVV
no binding: [1] | [2] | [3] | [4] | [5] | [6] | [7] | [8] | [9] | [10] | [11] | [12] | [13] | [14]
